The source of these data is PMC6602975, “Structure and function of the Orc1 BAH-nucleosome complex” (Nature Communications, 2019).

For experiment [1], the target named is Histone H2B (X. laevis), in the nucleosome core particle (X. laevis, UniProt P02281 1-126). Kind of experiment: crystal structure; Orc1 BAH L79I mixed with nucleosome 3:1, complex purified by gel filtration; sitting drop at 4 °C, 6 mM Na-cacodylate pH 6.0, 0.4 mM spermine-HCl, 2 mM MgCl2, 1.75% PEG 400; 3.3 Å. As to conditions: both partners purified.
Experiment [2] addresses T1, Histone H4 (X. laevis), in the nucleosome core particle (X. laevis, UniProt P62799 1-103).
T1 construct: histone H4, X. laevis; Stood in the crystal as part of the nucleosome m12; source: bacterial expression vector
The experiment is described as above. As to conditions: both partners purified.

B1: Orc1 BAH L79I mutant (domain or fragment)
chain: MAKTLKDLQGWEIITTDEQGNIIDGGQKRLRRRGAKTEHYLKRSSDGIKLGRGDSVVMHNEAAGTYSVYMIQELRLNTINNVVELWALTYLRWFEVNPLAHYRQFNPDANILNRPLNYYNKLFSETANKNELYLTAELAELQLFNFIRVANVMDGSKWEVLKGNVDPERDFTVRYICEPTGEKFVDINIEDVKAYIKKVEPREAQEYLKDLTLP
modifications: N-alpha-acetyl on A2 (acetylated N-terminus visible in the structure)
notes: Orc1 BAH domain, S. cerevisiae, amino acids 1-214, L79I; Used for the crystal structure and in EMSA; source: SF9 insect cells (baculovirus), purified (Ni-NTA, SP-Sepharose FF, Superdex-200)
With B1, the binding result in experiment [1] and in experiment [2] was “binds” in each case.
